# Experimental data taken from US20080242590A1, “New Method 706” (ASTRAZENECA AB, priority 2007, published 2008).
# B1: Fc-Neprilysin: extracellular domain of human Neprilysin fused to the human IgG2 Fc domain (including hinge), Fc at N-terminus; SEQ ID NO 11 (protein)
# chain: ERKCCVECPPCPAPPVAGPSVFLFPPKPKDTLMISRTPEVTCVVVDVSHEDPEVQFNWYVDGVEVHNAKTKPREEQFNSTFRVVSVLTVVHQDWLNGKEYKCKVSNKGLPAPIEKTISKTKGQPREPQVYTLPPSREEMTKNQVSLTCLVKGFYPSDIAVEWESNGQPENNYKTTPPMLDSDGSFFLYSKLTVDKSRWQQGNVFSCSVMHEALHNHYTQKSLSLSPGKYDDGICKSSDCIKSAARLIQNMDATTEPCTDFFKYACGGWLKRNVIPETSSRYGNFDILRDELEVVLKDVLQEPKTEDIVAVQKAKALYRSCINESAIDSRGGEPLLKLLPDIYGWPVATENWEQKYGASWTAEKAIAQLNSKYGKKVLINLFVGTDDKNSVNHVIHIDQPRLGLPSRDYYECTGIYKEACTAYVDFMISVARLIRQEERLPIDENQLALEMNKVMELEKEIANATAKPEDRNDPMLLYNKMTLAQIQNNFSLEINGKPFSWLNFTNEIMSTVNISITNEEDVVVYAPEYLTKLKPILTKYSARDLQNLMSWRFIMDLVSSLSRTYKESRNAFRKALYGTTSETATWRRCANYVNGNMENAVGRLYVEAAFAGESKHVVEDLIAQIREVFIQTLDDLTWMDAETKKRAEEKALAIKERIGYPDDIVSNDNKLNNEYLELNYKEDEYFENIIQNLKFSQSKQLKKLREKVDKDEWISGAAVVNAFYSSGRNQIVFPAGILQPPFFSAQQSNSLNYGGIGMVIGHEITHGFDDNGRNFNKDGDLVDWWTQQSASNFKEQSQCMVYQYGNFSWDLAGGQHLNGINTLGENIADNGGLGQAYRAYQNYIKKNGEEKLLPGLDLNHKQLFFLNFAQVWCGTYRPEYAVNSIKTDVHSPGNFRIIGTLQNSAEFSEAFHCRKNSYMNPEKKCRVW
# Key:
# amyloid β 1-40 peptide = assay: Degradation of amyloid β 1-40 peptide by Fc-Neprilysin and Neprilysin in buffer; assay type: biochemical; settings: 2.4 μg/ml, Aβ 1-40 300 nM, 2.5 hours at 37° C., buffer
# Experimental: The assay is measuring the remaining amyloid β 1-40 peptide (Bachem) concentration following its incubation in the presence of Neprilysin (R&D Systems) or Fc-Neprilysin with or without Neprilysin inhibitor. 100 μl of reaction mixture containing amyloid β 1-40 peptide (final concentrations, 300, 30 or 3 nM) and/or Neprilysin (2.4 μg/ml), and/or Fc-Neprilysin construct (2.4 μg/ml), and/or Phosphoramidone (10 μM) was incubated in a round bottom 96-well polypropylene plate at 37° C. for 2.5 hours. Following incubation, 10 μl of reaction mixture was transferred into Thermo-Fast© 96-well PCR plate (Abgene, UK) containing 10 μl of Standard Diluent (Gyros AB). Amyloid β 1-40 concentration was determined using Gyrolab Workstation LIF system. Biotinylated anti-amyloid β antibodies (6E10; final concentration 50 μg/ml; Signet) were used as capturing antibodies and polyclonal anti-human amyloid β antibodies (44-348; Biosource) labeled with Alexa Fluor 647 dye (Molecular probes) were used as detection antibodies. Amyloid β 1-40 peptide concentration measurement performed according to the manufacturers protocol using Gyrolab Bioaffy™ Software Package Version 1.8 (Gyros AB). Amyloid β 1-40 peptide degradation by Neprilysin was calculated as a percentage of Amyloid β 1-40 peptide left after incubation in the presence of Neprilysin compared to the amyloid β 1-40 peptide concentration in the absence of Neprilysin.
# soluble Aβ40 = assay: Soluble Aβ40 in plasma after acute i.v. treatment (Example 23); assay type: in vivo, APPSWE-transgenic mice
# Experimental: The objective with this study was to evaluate the time and dose-response effect of Fc-Nep in plasma of female APPSWE-tg mice after acute intraveneous treatment. The specific purpose is to find an effect on plasma Aβ40 and Aβ42. The γ-secretase inhibitor M-550426 is included as a reference compound.
# 25-31 weeks old female APPSWE-transgenic mice (10 mice/group) received vehicle or the Fc-Nep at 1 or 5 mg/kg as a single intravenous injections. As a reference compound, 300 μmol/kg of the γ-secretase inhibitor M-550426 was used and these animals was treated in 3 hours (4 mice). […] Blood was sampled from vehicle- and compound-treated animals at 1.5 and 3 hours after dose. Blood was withdrawn from anaesthetized mice by heart puncture into pre-chilled microtainer tubes containing EDTA. Blood samples were immediately put on ice prior to centrifugation. Plasma was prepared by centrifugation for 10 minutes at approximately 3000×g at +4° C. within 20 minutes from sampling. After blood sampling, mice were terminated. Aβ40 and Aβ42 levels in plasma were analyzed by commercial ELISA kit obtained from Biosource and Innogenetics, respectively.
# Aβ40 = assay: Plasma Aβ40 time-response after single i.v. dose (Example 25); assay type: in vivo, C57BL/6 mice; settings: 5 mg/kg single i.v., all time points (1.5, 6, 12, 24, 36, 72 and 168 hours)
# Experimental: The objective of this study was to evaluate the time-response relationship of the hFc-Nep in plasma of female C57BL/6 mice after a single dose. The specific purpose is to find how long the reducing effect of hFc-Nep stays in the plasma, and to correlate the effect to the level of exposure of test compound in plasma. The γ-secretase inhibitor M-550426 is included as a positive compound.
# 20-21 weeks old female C57BL/6 mice (8 mice/group) received vehicle or hFc-Nep at 5 mg/kg as a single intravenous injection and Aβ40 was analysed at different time points after injection (between 1.5-168 hours, i.e., up to 1 week). The γ-secretase inhibitor M-550426 was given per orally and the animals were treated for 3 hours. A blank group was also included in the study. […] Blood collection, plasma processing and measurement of mouse Aβ40 levels in plasma were basically as described in Example 27.
# [1] = Pharmacokinetics of Fc-Nep and in-house produced Neprilysin, single i.v. dose (Example 27); assay type: in vivo; settings: mice, single i.v. dose 10 or 50 nmol enzyme/kg (1 and 5 mg/kg)
# Experimental: The Fc-Nep fusion protein was developed to improve the pharmacokinetic entities of neprilysin with the specific aims to reduce clearance and improve half-life. To test this we have administrated a single i.v. dose of 10 or 50 nmol enzyme/kg body weight neprilysin (Nep) or Fc-Nep (1 and 5 mg/kg) to mice. At set times the dose blood samples were drawn from the tail vein or by heart puncture at termination. Upon sampling into tubes containing EDTA the aliquots were put on ice. Plasma was prepared by centrifugation within 15 minutes of sampling (typically 1500 g at 4° C. for 10 min) and immediately frozen. Plasma concentrations of Nep and Fc-Nep were determined via immunoassays using either anti-Nep for Nep or anti-human IgG for Fc-Nep as capture antibodies while both substances were detected via an anti-Nep antibody. Pharmacokinetic parameters are calculated using a software package (WinNonlin, Pharsight Corporation, USA) and in this example experiment the calculated half-life had increased from about 1 day for Nep to about 2.5 weeks for Fc-Nep.
# amyloid β 1-40 = assay: Degradation of Aβ 1-40 in APPswe-tg mouse plasma pool (Example 28); assay type: biochemical; settings: room temperature, 1 hour
# Experimental: Mouse plasma collected from 9 animals was stored at −70° C. Plasma was thawed and pooled just before the experiment. Aβ 1-40 and 1-42 in plasma pool was degraded by human Fc-Nep or mouse Fc-Nep with corresponding vehicles (50 mM Tris-HCl, 150 mM NaCl pH 7.5). […] The enzymatic reaction was stopped by adding Phosphoramidone (10 μM final concentration).
# After degradation, before concentration of amyloid β 1-40 in tg-mouse plasma pool was measured using ELISA kit (Biosource; KHB3481), the plasma samples were diluted 20 times in standard diluent buffer, according to manufacturers instructions.
molecule,measurement,setting,value
B1,Amyloid β 1-40 peptide degraded,amyloid β 1-40 peptide; batch 1,50%
same,Amyloid β 1-40 peptide degraded,amyloid β 1-40 peptide; batch 2,42%
same,Change in plasma Aβ40,"soluble Aβ40; 1 and 5 mg/kg i.v., 3 hours after dose",No significant changes
same,Reduction of soluble Aβ40 in plasma compared to vehicle,"soluble Aβ40; 1 or 5 mg/kg i.v., 1.5 hours after dose, P<0.05",approximately 20%
same,Aβ40 reduction in plasma compared to vehicle,Aβ40,67-80%
same,calculated half-life,[1],about 2.5 weeks
same,Degradation of amyloid β 1-40 compared to plasma without treatment,amyloid β 1-40; highest concentration 100 μg/ml,71%
same,EC50,amyloid β 1-40,470 nM
